We go through one protein from FireProtDB (doi:10.1021/bi00185a025).

For this data set the following is noted: Escherichia coli (strain K12); pH 7; 25 °C; Urea; CD; Sodium phosphate 5 mM; reversible: yes; whole UniProt chain shown.

B1: Chemotaxis protein CheY wild type, P0AE67 (protein)
chain: MADKELKFLVVDDFSTMRRIVRNLLKELGFNNVEEAEDGVDALNKLQAGGYGFVISDWNMPNMDGLELLKTIRADGAMSALPVLMVTAEAKKENIIAAAQAGASGYVVKPFTAATLEEKLNKIFEKLGM
As to B1, the denaturant m value is 1.6 kcal/mol/M, the “denaturant midpoint (higher = more stable)” value worked out at 3.25 M and the unfolding free energy came out at 5.2 kcal/mol.
